Results as given in publication PMC10142695, “Expression and Characterization of 3,6-Dihydroxy-picolinic Acid Decarboxylase PicC of Bordetella bronchiseptica RB50” (Microorganisms, 2023).

Substrate: O=C(O)c1nc(O)ccc1O
Assay: purified protein
Format: biochemical, Bordetella bronchiseptica
Conditions: 50 mM PBS pH 7.4 (unit definition says pH 7.0), 25 °C, 0 to 300 μM 3,6DHPA, no added metal stated

B1: PicCRB50 (Bordetella bronchiseptica RB50) (protein)
chain: MTKVRKIAFEEHFTAVGFGDYSKAFVQHLDPGFAAELGARLTDFGAGRLAEMDAAGIDYAILSQTGPGVQGEPDAAVALRRARENNDFLAERIARHPDRFGGFAALPMHDPKTAAAELTRAVRELGFKGSLVNGHTNGVYYDDPAYDAFWEQMQELDVPLYLHPFDAYVLPHAYKGHPELAGATWGWGVETGTHALRLLFGGVFDRFPKLKIILGHMGEGLPFQRWRFDSRFAAYPYGVKLQRAPSEYIGSNILITTSGVCSHPTLVGAIAEMGAEAVMFSIDYPYESTALAVEFIESAPLDAATRELVCYGNAARLFKL
Protein B1 has a Km of 20.41 ± 2.60 µM and a kcat of 7.61 ± 0.53 S^−1.
